B1: 4239139: IMAGE clone protein: Fgfr4, fibroblast growth factor receptor 4 (protein, UniProt Q03142 17-799, looked up)
Fibroblast growth factor …: LSLEASEEMEQEPCLAPILEQQEQVLTVALGQPVRLCCGRTERGRHWYKEGSRLASAGRVRGWRGRLEIASFLPEDAGRYLCLARGSMTVVHNLTLLMDDSLTSISNDEDPKTLSSSSSGHVYPQQAPYWTHPQRMEKKLHAVPAGNTVKFRCPAAGNPMPTIHWLKDGQAFHGENRIGGIRLRHQHWSLVMESVVPSDRGTYTCLVENSLGSIRYSYLLDVLERSPHRPILQAGLPANTTAVVGSDVELLCKVYSDAQPHIQWLKHVVINGSSFGADGFPYVQVLKTTDINSSEVEVLYLRNVSAEDAGEYTCLAGNSIGLSYQSAWLTVLPEEDLTWTTATPEARYTDIILYVSGSLVLLVLLLLAGVYHRQVIRGHYSRQPVTIQKLSRFPLARQFSLESRSSGKSSLSLVRGVRLSSSGPPLLTGLVNLDLPLDPLWEFPRDRLVLGKPLGEGCFGQVVRAEAFGMDPSRPDQTSTVAVKMLKDNASDKDLADLVSEMEVMKLIGRHKNIINLLGVCTQEGPLYVIVECAAKGNLREFLRARRPPGPDLSPDGPRSSEGPLSFPALVSCAYQVARGMQYLESRKCIHRDLAARNVLVTEDDVMKIADFGLARGVHHIDYYKKTSNGRLPVKWMAPEALFDRVYTHQSDVWSFEILLWEIFTLGGSPYPGIPVEELFSLLREGHRMERPPNCPSELYGLMRECWHAAPSQRPTFKQLVEALDKVLLAVSEEYLDLRLTFGPFSPSNGDASSTCSSSDSVFSHDPLPLEPSPFPFSDSQTT
B2: 4190326: IMAGE clone protein: Lyn, Yamaguchi sarcoma viral (vyes1) oncogene homolog (protein, UniProt P25911 2-512, looked up)
Tyrosine-protein kinase Lyn: GCIKSKRKDNLNDDEVDSKTQPVRNTDRTIYVRDPTSNKQQRPVPEFHLLPGQRFQTKDPEEQGDIVVALYPYDGIHPDDLSFKKGEKMKVLEEHGEWWKAKSLSSKREGFIPSNYVAKVNTLETEEWFFKDITRKDAERQLLAPGNSAGAFLIRESETLKGSFSLSVRDYDPMHGDVIKHYKIRSLDNGGYYISPRITFPCISDMIKHYQKQSDGLCRRLEKACISPKPQKPWDKDAWEIPRESIKLVKKLGAGQFGEVWMGYYNNSTKVAVKTLKPGTMSVQAFLEEANLMKTLQHDKLVRLYAVVTKEEPIYIITEFMAKGSLLDFLKSDEGGKVLLPKLIDFSAQIAEGMAYIERKNYIHRDLRAANVLVSESLMCKIADFGLARVIEDNEYTAREGAKFPIKWTAPEAINFGCFTIKSDVWSFGILLYEIVTYGKIPYPGRTNADVMSALSQGYRMPRMENCPDELYDIMKMCWKEKAEERPTFDYLQSVLDDFYTATEGQYQQQP
B3: 4238984: IMAGE clone protein: Kdr, kinase insert domain protein receptor (protein, UniProt P35918 20-1345, looked up)
Vascular endothelial growth …: ASVGLPGDFLHPPKLSTQKDILTILANTTLQITCRGQRDLDWLWPNAQRDSEERVLVTECGGGDSIFCKTLTIPRVVGNDTGAYKCSYRDVDIASTVYVYVRDYRSPFIASVSDQHGIVYITENKNKTVVIPCRGSISNLNVSLCARYPEKRFVPDGNRISWDSEIGFTLPSYMISYAGMVFCEAKINDETYQSIMYIVVVVGYRIYDVILSPPHEIELSAGEKLVLNCTARTELNVGLDFTWHSPPSKSHHKKIVNRDVKPFPGTVAKMFLSTLTIESVTKSDQGEYTCVASSGRMIKRNRTFVRVHTKPFIAFGSGMKSLVEATVGSQVRIPVKYLSYPAPDIKWYRNGRPIESNYTMIVGDELTIMEVTERDAGNYTVILTNPISMEKQSHMVSLVVNVPPQIGEKALISPMDSYQYGTMQTLTCTVYANPPLHHIQWYWQLEEACSYRPGQTSPYACKEWRHVEDFQGGNKIEVTKNQYALIEGKNKTVSTLVIQAANVSALYKCEAINKAGRGERVISFHVIRGPEITVQPAAQPTEQESVSLLCTADRNTFENLTWYKLGSQATSVHMGESLTPVCKNLDALWKLNGTMFSNSTNDILIVAFQNASLQDQGDYVCSAQDKKTKKRHCLVKQLIILERMAPMITGNLENQTTTIGETIEVTCPASGNPTPHITWFKDNETLVEDSGIVLRDGNRNLTIRRVRKEDGGLYTCQACNVLGCARAETLFIIEGAQEKTNLEVIILVGTAVIAMFFWLLLVIVLRTVKRANEGELKTGYLSIVMDPDELPLDERCERLPYDASKWEFPRDRLKLGKPLGRGAFGQVIEADAFGIDKTATCKTVAVKMLKEGATHSEHRALMSELKILIHIGHHLNVVNLLGACTKPGGPLMVIVEFCKFGNLSTYLRGKRNEFVPYKSKGARFRQGKDYVGELSVDLKRRLDSITSSQSSASSGFVEEKSLSDVEEEEASEELYKDFLTLEHLICYSFQVAKGMEFLASRKCIHRDLAARNILLSEKNVVKICDFGLARDIYKDPDYVRKGDARLPLKWMAPETIFDRVYTIQSDVWSFGVLLWEIFSLGASPYPGVKIDEEFCRRLKEGTRMRAPDYTTPEMYQTMLDCWHEDPNQRPSFSELVEHLGNLLQANAQQDGKDYIVLPMSETLSMEEDSGLSLPTSPVSCMEEEEVCDPKFHYDNTAGISHYLQNSKRKSRPVSVKTFEDIPLEEPEVKVIPDDSQTDSGMVLASEELKTLEDRNKLSPSFGGMMPSKSRESVASEGSNQTSGYQSGYHSDDTDTTVYSSDEAGLLKMVDAAVHADSGTTLRSPPV
B4: 4013934: IMAGE clone protein: Ephb4, Eph receptor B4 (protein, UniProt P54761 16-987, looked up)
Ephrin type-B receptor 4: LEETLLNTKLETADLKWVTYPQAEGQWEELSGLDEEQHSVRTYEVCDMKRPGGQAHWLRTGWVPRRGAVHVYATIRFTMMECLSLPRASRSCKETFTVFYYESEADTATAHTPAWMENPYIKVDTVAAEHLTRKRPGAEATGKVNIKTLRLGPLSKAGFYLAFQDQGACMALLSLHLFYKKCSWLITNLTYFPETVPRELVVPVAGSCVANAVPTANPSPSLYCREDGQWAEQQVTGCSCAPGYEAAESNKVCRACGQGTFKPQIGDESCLPCPANSHSNNIGSPVCLCRIGYYRARSDPRSSPCTTPPSAPRSVVHHLNGSTLRLEWSAPLESGGREDLTYAVRCRECRPGGSCLPCGGDMTFDPGPRDLVEPWVAIRGLRPDVTYTFEVAALNGVSTLATGPPPFEPVNVTTDREVPPAVSDIRVTRSSPSSLILSWAIPRAPSGAVLDYEVKYHEKGAEGPSSVRFLKTSENRAELRGLKRGASYLVQVRARSEAGYGPFGQEHHSQTQLDESESWREQLALIAGTAVVGVVLVLVVVIIAVLCLRKQSNGREVEYSDKHGQYLIGHGTKVYIDPFTYEDPNEAVREFAKEIDVSYVKIEEVIGAGEFGEVCRGRLKAPGKKESCVAIKTLKGGYTERQRREFLSEASIMGQFEHPNIIRLEGVVTNSVPVMILTEFMENGALDSFLRLNDGQFTVIQLVGMLRGIASGMRYLAEMSYVHRDLAARNILVNSNLVCKVSDFGLSRFLEENSSDPTYTSSLGGKIPIRWTAPEAIAFRKFTSASDAWSYGIVMWEVMSFGERPYWDMSNQDVINAIEQDYRLPPPPDCPTSLHQLMLDCWQKDRNARPRFPQVVSALDKMIRNPASLKIVARENGGASHPLLDQRQPHYSAFGSVGEWLRAIKMGRYEESFAAAGFGSFEVVSQISAEDLLRIGVTLAGHQKKILASVQHMKSQAKPGAPGGTGGPAQQF

system: autophosphorylation (phosphotyrosine); experiment: In vitro kinase library screen: autophosphorylation; format: biochemical; conditions: not given
Method: Proteins were produced from DNA plasmids of Mock Luciferase, Promega, tyrosine kinase clone Spleen Tyrosine kinase (SYK, IMAGE ID# 3870426) and Eph receptor-A7 (EphA7, IMAGE ID# 3991628) (Incyte Genomics, CA) and immobilized on streptavidin or avidin coated NPT-IPR plates as described in the Example 7. To promote autophosphorylation in these immobilized and purified proteins, Mn++ ions were added in a 50 μl reaction containing 5 mM MgCl2, 5 mM MnCl2, 100 μM ATP, 25 mM Tris-HCl buffer pH 7.4, 0.05 mM Na3VO4, 0.004% TritonX-100, 2 mM DTT and EDTA-free protease inhibitor (Roche Molecular Biochemicals). This mixture was incubated with shaking at room temperature overnight to allow autophosphorylation. Following this incubation, wells were washed 2 times with TT-buffer and 2 times with water. Following this step, 50 ng Sulfo-TAG labeled anti-phosphotyrosine in buffer containing 25 mM Tris-HCl buffer pH 7.4, 5 mM MgCl2, 0.05 mM Na3VO4, 0.004% TritonX-100, 2 mM DTT and 0.05% IgG in a final volume of 50 μl was added followed by incubation at room temperature for 45 min. The unbound reagents were removed by one time washing with water, and the TAG label was detected in presence of 150 μl IPR assay buffer (0.4 mM Gly—Gly buffer, pH 7.8, 1 mM EDTA, 0.1 M TPA). The ECL signals were measured using an imaging plate reader.
(§1) Proteins were produced in an in vitro transcription and translation reaction as described in the Materials and Methods. […] The reaction was stopped by mixing with BB2 buffer. Biotinylated proteins from 50 μl of the mixture (representing 0.5 μl to 5 μl of TnT reaction) were immobilized onto streptavidin or avidin coated NPT-IPR plates by shaking at room temperature for 45 min. The activity of the immobilized protein towards pEY or autophosphorylation was further assayed by the methods described in examples 7 and 8.

**Q.** Which ECL signal does the source give for B1 here?
**A.** 12,588

**Q.** For B2, which ECL signal is on record?
**A.** 599,680

**Q.** Which ECL signal does the source give for B3 here?
**A.** 61,364

**Q.** For B4, which ECL signal is on record?
**A.** 28,275

system: pEY; experiment: In vitro kinase library screen: activity towards pEY; format: biochemical; conditions: 5 ul of expressed protein
Method: Proteins were produced in an in vitro transcription and translation reaction. […] The unbound components of the reaction containing endogenous kinases were removed by three washes with TT-buffer (25 mM Tris-HCl buffer pH 7.4 and 0.004% Triton), two five minutes washings with high-salt wash buffer (25 mM Tris-HCl buffer pH 7.4, 0.004% Triton, 1M NaCl and 5 mM DTT) and 3 more washes with TT-buffer. To these immobilized and purified proteins a tyrosine kinase substrate, 5 nM pEY (poly Glu-Tyr, Sigma, MO), was added in a 50 μl reaction solution containing 5 mM MgCl2, 5 mM MnCl2, 100 μM ATP, 25 mM Tris-HCl buffer pH 7.4, 0.05 mM Na3VO4, 0.004% TritonX-100, 2 mM DTT and EDTA-free protease inhibitor (Roche Molecular Biochemicals). This mixture was incubated with shaking at room temperature overnight to allow phosphorylation of the pEY substrate by the immobilized kinases. Following this incubation, 45 μl of this mixture was transferred to a streptavidin or avidin-coated NPT IPR plate coated with biotinylated anti-phosphotyrosine antibody (PY20, Zymed labs, CA) followed by incubation for 30 minutes at room temperature to allow the binding of the phosphorylated pEY substrate to the PY20 coated NPT plate. Following this binding step, 50 ng Sulfo-TAG labeled anti-phosphotyrosine in buffer containing 25 mM Tris-HCl buffer pH 7.4, 5 mM MgCl2, 0.05 mM Na3VO4, 0.004% TritonX-100, 2 mM DTT and 0.05% IgG was added followed by incubation at room temperature for 30 mm. The unbound reagents were removed by one time washing with water, and the TAG label was detected in presence of 150 μl IPR assay buffer (0.4 mM Gly-Gly buffer, pH 7.8, 1 mM EDTA, 0.1 M TPA). The ECL signals were measured using an imaging plate reader.
as §1

**Q.** Which HTS signal does the source give for B1 here?
**A.** 7,343

**Q.** Which HTS signal does the source give for B2 here?
**A.** 427,178

**Q.** Which HTS signal does the source give for B3 here?
**A.** 107,459

**Q.** How did the HTS signal turn out when B4 was run?
**A.** 7,357

From patent publication US7063946B2, “Methods, reagents, kits and apparatus for protein function analysis” (Meso Scale Technologies, LLC., priority 2001, dated 2006)
